Read-outs that look alike come from different tables or passages of the source.
Assays:
[1] = biological target: T1, SARS-CoV RBD (Sino Biological) (SARS-CoV, UniProt P59594 306-527); experiment: ELISA
[2] = biological target: T2, SARS-CoV-2 Spike protein (SARS-CoV-2 Wuhan-Hu-1, UniProt P0DTC2 14-1273); experiment: cell-based or functional assay
[3] = biological target: T3, SARS-CoV-2 RBD (residues 331-550 of spike from BetaCoV/Wuhan-Hu-1/2019, accession number MN908947) (SARS-CoV-2 Wuhan-Hu-1, UniProt P0DTC2 331-550); experiment: ELISA, plate coated with SARS-CoV-2 RBD; antibodies as rIgG1-LS
[4] = biological target: T4, SARS-CoV-2 RBD-mouse Fc (Sino Biological) (SARS-CoV-2, UniProt P0DTC2 331-541)
[5] = biological target: T3, SARS-CoV-2 RBD (residues 331-550 of …); experiment: BLI (Octet): antibody on Protein A pins, SARS-CoV-2 RBD at 6, 1.5 and 0.4 µg/ml
[6] = biological target: T3, SARS-CoV-2 RBD (residues 331-550 of …); experiment: BLI
[7] = biological target: T1, SARS-CoV RBD (Sino Biological); experiment: BLI
[8] = biological target: T3, SARS-CoV-2 RBD (residues 331-550 of …); experiment: BLI; remark: listed apart in the source
[9] = biological target: T1, SARS-CoV RBD (Sino Biological); experiment: BLI; remark: listed apart in the source
[10] = biological target: T3, SARS-CoV-2 RBD (residues 331-550 of …); experiment: ELISA
[11] = biological target: T1, SARS-CoV RBD (Sino Biological); experiment: ELISA; remark: listed apart in the source
[12] = biological target: T3, SARS-CoV-2 RBD (residues 331-550 of …)
[13] = biological target: T3, SARS-CoV-2 RBD (residues 331-550 of …); remark: listed apart in the source
[14] = biological target: T1, SARS-CoV RBD (Sino Biological)
[15] = biological target: T1, SARS-CoV RBD (Sino Biological); remark: listed apart in the source
[16] = biological target: T5, SARS-CoV Spike protein (SARS-CoV, UniProt P59594 14-1255)
[17] = biological target: T3, SARS-CoV-2 RBD (residues 331-550 of …); remark: listed apart in the source
[18] = biological target: T4, SARS-CoV-2 RBD-mouse Fc (Sino …); remark: listed apart in the source
[19] = biological target: T2, SARS-CoV-2 Spike protein; experiment: cell-based or functional assay; remark: listed apart in the source
[20] = biological target: T2, SARS-CoV-2 Spike protein; experiment: cell-based or functional assay; remark: listed apart in the source
[21] = biological target: T5, SARS-CoV Spike protein; experiment: cell-based or functional assay
[22] = biological target: T2, SARS-CoV-2 Spike protein; experiment: cell-based or functional assay; remark: listed apart in the source
[23] = biological target: T5, SARS-CoV Spike protein; experiment: cell-based or functional assay; remark: listed apart in the source
[24] = biological target: T3, SARS-CoV-2 RBD (residues 331-550 of …); remark: listed apart in the source
[25] = biological target: T1, SARS-CoV RBD (Sino Biological); remark: listed apart in the source
[26] = biological target: T3, SARS-CoV-2 RBD (residues 331-550 of …); experiment: BLI (Octet): antibody on Protein A pins, SARS-CoV-2 RBD at 6, 1.5 and 0.4 µg/ml; remark: listed apart in the source
[27] = biological target: T3, SARS-CoV-2 RBD (residues 331-550 of …); remark: listed apart in the source
[28] = biological target: T3, SARS-CoV-2 RBD (residues 331-550 of …); experiment: ELISA, plate coated with SARS-CoV-2 RBD, OD405nm
[29] = biological target: T3, SARS-CoV-2 RBD (residues 331-550 of …); experiment: ELISA, plate coated with SARS-CoV-2 RBD; antibodies as rIgG1-LS; remark: listed apart in the source

B1: S2D60 (antibody, V domains shown)
VH: EVQLVQSGPEVKKPGTSVKVSCKASGFTFMSSAVQWVRQARGQRLEWIGWIVVGSGNTNYTQKFRERVTITRDMSTSTAYMELSSLRSEDTAVYYCAAPRCSGGSCHDGFDIWGQGTMVTVSS
VL: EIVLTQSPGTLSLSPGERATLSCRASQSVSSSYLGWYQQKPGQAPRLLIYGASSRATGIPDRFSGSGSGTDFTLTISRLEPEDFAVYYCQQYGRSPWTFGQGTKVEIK
For B1, the binding result [1] was “no binding”, the “neutralization IC50” value [2] was 0.012 mg/L and the “neutralization IC80” value [2] was 0.04 mg/L. The “neutralization IC90” value [2] was 0.084 mg/L, the “neutralization IC95” value [2] was 0.164 mg/L and the “EC50 (read off the curve)” value [3] was about 0.1 mg/L.

B2: S2X190 (antibody, V domains shown)
VH: EVQLVESGGGVVQPGRSLRLSCAASGFPFSTYGMHWVRQAPGKGLEWVAVIWYDGSTKYYADSVKGRFTISRDNSKNTLYLQMNSLRAEDTALYYCARVHSSGPGDEYFQHWGQGTLLTVSS
VL: DIVMTQSPSSLSASVGDRVTITCRASQGISSGLAWYQQKPGKGPKVLIYDASSLESGVPSRFSGSASGTDFTLTISSLQPEDFATYFCQQFYSYPLTFGGGTKVEIK
B2 was tested, and the IC50 [4] was 0.02 mg/L and the Kd [5] was 0.923 nM.

B3: S2X259 (antibody, V domains shown)
VH: QVQLVQSGAEVKKPGSSVKVSCKASGGIFNTYTISWVRQAPGQGLEWMGRIILMSGMANYAQKIQGRVTITADKSTSTAYMELTSLRSDDTAVYYCARGFNGNYYGWGDDDAFDISGQGTLVTVYS
VL: QTVLTQPPSVSGAPGQRVTISCTGSNSNIGAGYDVHWYQQLPGTAPKLLICGNSNRPSGVPDRFSGSKSGTSASLAITGLQAEDEADYYCQSYDSSLSGPNWVFGGGTKLTVL
B3 showed a Kd [6] of at most 0.001 nM, a Kd [7] of 0.537 nM and a Kd [8] of 0.0874 nM. The Kd [9] was 0.862 nM, the EC50 [10] was 0.0343 mg/L and the EC50 [11] was 0.0285 mg/L. For the same binder, the “EC50 (read off the curve)” value [12] was about 7 mg/L, the IC50 [13] was 0.00921 mg/L and the IC50 [14] was 0.01 mg/L. The EC50 [15] was 0.00151 mg/L, the EC50 [16] was 0.00215 mg/L and the EC50 [17] was 0.00352 mg/L. The IC50 [18] was 0.0221 mg/L, the “neutralization IC50” value [19] was 0.184 mg/L and the “neutralization IC50” value [20] was 0.046 mg/L. The “neutralization IC50” value [21] was 0.189 mg/L, the “neutralization IC50” value [22] was 0.231 mg/L and the “neutralization IC50” value [23] was 0.0806 mg/L.

B4: S2X259 Fab (Fab, V domains shown)
VH: B3 VH
VL: B3 VL
Work on B4 yielded a Kd [24] of 0.08 nM and a Kd [25] of 1.6 nM.

B5: S2X132 (antibody, V domains shown)
VH: EVQLVESGGGLVQPGGSLRLSCAASGFTVSSNYMSWVRQAPGKGLEWVSVIYSGGNTYYADSVKGRFTISRDNSKNTLYLQMISLRAEDTAVYYCARDRRLPSIIFGLDVWGQGTTVTVSS
VL: QSALTQPASVSGSPGQSITISCTGTSSDVGGNNHVSWYRQHPGKAPKLMIYEVSNRPSGVSNRFSGSKSGNTASLTISGLQAGDEADYYCSSFTTYTTDVVFGGGTKLTVL
With B5 the IC50 [4] was 0.0248 mg/L and the Kd [26] was 0.709 nM.

B6: S2X200 (antibody, V domains shown)
VH: EVHLVESGGGLIQPGGSLRLSCAASGITVSSNYMSWVRQAPGKGLEWVSVIYSGGSTFYADSVKGRFTISRDNSKNTVYLQMNSLRAEDTAVYYCARDLVTYGMDVWGQGTTVTVSS
VL: EIVLTQSPSFLSASVGDRVTITCRASQGISSYLAWYQQKPGKAPKLLIYAASTLQSGVPSRFSGSGSGTEFTLTISSLQPEDFATYYCQQLNGDPPIFGHGTRLEIK
B6 gave an EC50 [27] of 0.00151 mg/L.

B7: S2F1 (antibody, V domains shown)
VH: EVQLLESGGGLVQPGGSLRLSCAGSGFSVSNHAMSWVRQAPGKGLEWVSAIGGSDSTTYYADSVKGRFAISRDNSKNTLYLQMNSLRADDTAIYYCAKDNYTSTWFPFDYWGQGTQVIVSS
VL: DVVMTQSPLSLPVTLGQPASISCRSSHSLVHGDGNTYLNWFQQRPGQSPRRLIHKVSNRDSGVPDRFSGSGSGTDFTLKISRVEAEDVGVYYCMQGSYWPPWTFGQGTKVEIN
B7: binds [28].

B8: S2D43 (antibody, V domains shown)
VH: QVTLKESGPTLVKPTQTLTLTCTFSGFSLSTSGVGVGWLRQPPGKALEWLALIYWDDDKRYSPSLKNRLTVTKDTSKNQVVLTMTNLDPVDTATYYCAHDNTLGGSSTWQSTFDYWGQGTLVTVSS
VL: QSVLTQPPSVSEAPRQRVTISCSGSNSNIGNNAVHWYQQLPGKAPKLLIYYDDLLPSGVSDRFSGSKSGTSASLAISGLQSEDEADYYCAAWDDRMNGPVFGGGTKLTVL
B8: binds [29].

Reference: patent US20240059757A1 (VIR BIOTECHNOLOGY, published 2024)
